Patent US5739106A, “Appetite regulating compositions” (priority 1995, dated 1998)
pEC50, pIC50: −log10 of the molar value. Ends that are not written are not given here.

Tests used:
[1] = solubility and stability characteristics compared to human amylin; assay type: physicochemical
food intake in rats = conditions: IP, 0.5 μg/kg; cited from earlier work
[2] = system: insulin-stimulated glycogen synthesis in soleus muscle; conditions: cited from earlier work
[3] = target: amylin receptors (membrane-bound amylin receptors); test: receptor binding assay: competition with 125I Bolton Hunter rat amylin for membrane-bound amylin receptors
[4] = target: amylin receptors (membrane-bound amylin receptors)
food intake in mice = test: food intake in food-deprived mice after intraperitoneal injection; assay type: in vivo
Protocol: Male NIH/Swiss Webster (Hsd:NIHS) mice, 8-10 weeks of age, were obtained from Harlan Sprague Dawley, Madison, Wis. Animals were exposed to 12:12 hour light-dark cycle, with lights off at 18:00, and with room temperature between 22° and 25° C. Water and food (Teklan 7002, Harlan Teklad, Madison, Wis.) were available ad libitum except as indicated below. Animals were adapted to the vivarium environment for at least one week before experiments were carried out.
Rat amylin (AC128) was synthesized by Fmoc solid phase synthesis. […] Peptides were dissolved in sterile water to obtain stock solutions of 1 mg/ml. Further dilutions were made with sterile saline just prior to intraperitoneal injections.
Animals were individually housed and deprived of food for 18-20 hours before experiments. Animals were allowed ad libitum access to water before and during the experiments. Immediately after intraperitoneal injection of rat amylin or CCK-8 or saline, all animals received a pre-weighed pellet of food. Food intake for each animal was measured by weighing the food pellet at 30 minutes following injection and providing food.

Molecule | pIC50 [3] | Soleus Muscle (EC50, nM) [4] [nM] | other results
CC[C@H](C)[C@H](NC(=O)[C@@H]1CCCN1C(=O)CNC(=O)[C@H](Cc1ccccc1)NC(=O)[C@H](CC(N)=O)NC(=O)[C@H](CC(N)=O)NC(=O)[C@H](CO)NC(=O)[C@H](CO)NC(=O)[C@H](Cc1c[nH]cn1)NC(=O)[C@@H](NC(=O)[C@H](CC(C)C)NC(=O)[C@H](Cc1ccccc1)NC(=O)[C@H](CC(N)=O)NC(=O)[C@H](C)NC(=O)[C@H](CC(C)C)NC(=O)[C@H](CCCNC(=N)N)NC(=O)[C@H](CCC(N)=O)NC(=O)[C@@H](NC(=O)[C@H](C)NC(=O)[C@@H]1CSSC[C@H](NC(=O)[C@@H](N)CCCCN)C(=O)N[C@@H](CC(N)=O)C(=O)N[C@@H]([C@@H](C)O)C(=O)N[C@@H](C)C(=O)N[C@@H]([C@@H](C)O)C(=O)N1)[C@@H](C)O)C(C)C)C(=O)N[C@@H](CC(C)C)C(=O)N1CCC[C@H]1C(=O)N1CCC[C@H]1C(=O)N[C@H](C(=O)N[C@@H](CC(N)=O)C(=O)N[C@H](C(=O)NCC(=O)N[C@@H](CO)C(=O)N[C@@H](CC(N)=O)C(=O)N[C@H](C(=O)N[C@@H](Cc1ccc(O)cc1)C(N)=O)[C@@H](C)O)C(C)C)[C@@H](C)O [^25,28,29 Pro-h-amylin] | – | – | solubility characteristics [1]: more desirable; stability characteristics [1]: more desirable
amylin: amylin of unstated species in a literature report (KCNTATCATQRLANFLVHSSNNFGAILSSTNVGSNTY; Islet amyloid polypeptide; UniProt P10997 34-70, looked up) | – | – | effect on food intake (food intake in rats): significantly decreased food intake
Chicken calcitonin: ultimobranchial calcitonin closely related to fish calcitonins (CASLSTCVLGKLSQELHKLQTYPRTDVGAGTP; ends and bridges not checked; cysteine pairing not given here) | – | – | pEC50 [2]: 9.15
Salmon calcitonin: calcitonin from fish (salmon), ultimobranchial calcitonin, amylin agonist | – | – | pEC50 [2]: 9.40
Eel calcitonin: calcitonin from fish (eel), ultimobranchial calcitonin (CSNLSTCVLGKLSQELHKLQTYPRTDVGAGTP; ends and bridges not checked; cysteine pairing not given here) | – | – | pEC50 [2]: 9.40
CSCC[C@H](NC(=O)[C@H](Cc1ccc(OS(=O)(=O)O)cc1)NC(=O)[C@@H](N)CC(=O)O)C(=O)NCC(=O)N[C@@H](Cc1c[nH]c2ccccc12)C(=O)N[C@@H](CCSC)C(=O)N[C@@H](CC(=O)O)C(=O)N[C@@H](Cc1ccccc1)C(N)=O [CCK-8, Asp-Tyr(SO3 H)-Met-Gly-Trp-Met-Asp-Phe-NH2] | – | – | effect on food intake (food intake in mice; IP injection of 1.0 μg/kg, peptide alone): no measurable effect; suppressed food intake (food intake in mice; mice, intraperitoneal, 1.0 μg/kg of each peptide, at 30 minutes): 10.6±16.9%

Further lines, with some results ahead:

pIC50 [3] | Soleus Muscle (EC50, nM) [4] [nM] | Molecule | other results
10.15 | 0.4 | Salmon calcitonin (from UniProt P01263) (ligand) | –
10.52 | 0.7 | Chicken calcitonin (from UniProt P07660) (ligand) | –
10.30 | 0.3 | 1.7-Asn-eel Calcitonin (from UniProt P01262) (peptide) | –
10.30 | 1.6 | Human amylin (from UniProt P10997) (ligand) | –
10.05 | 0.4 | Eel calcitonin (from UniProt P01262) (ligand) | –
